# Experimental data reported in the DeepSol protein solubility set.
# Test: soluble on expression in E. coli; label from the status in PepcDB or PDB records
row,Sequence,soluble on expression in E. coli
1,MSRDTGDNLDRNQSGNLPMANVMDAYLSRRSVMRGSLGAAIAMIAGTGLTGCFDGGGSDHDDPVTEPPVTEPPVTEPEVPKLALGFQSIPGSRTDACVVAAGYSAYVLAPWGTPLNSNGNPWKSDGSNTSTDQANAMGMHHDGMHFFPINGSSEDGLLAINFEYIDTAALHPAGPTTDVNGKRPVEEVRKEINAHGAGVVRLQKINGRWQVVDNDPLNRRFTTASRMEITGPLRGTDHVKTKYSTAGTHCRGTNNNCGNGYTPWGTYLTCEENWPGIFVNKGTRPEDQRRIGVGTSSGQYKWESAAGDASEVDDEFARFDVTVKGASATDDYRNEASTYGYIVEIDPYNSSTLATKRTALGRFRHEGCAPGLPVAGKPLVWYMGDDSNNEYLYKWVSTAVWDPADATPADRLATGAKYLDQGKLYVARFNADGTGVWLLLDVATATTAGSTLGALYGDLPGIILNTRGAGDAVGATPMDRPEWTTVNPLNGDVYLTLTNNSARTPDKVDAANPRGPNRHGHIIRWHDSDDQLSFTWDIFVFGANAAGTADINRSGLTELNQFASPDGMSFDSRGVLWFETDNGETTLTDYTNDQLLAVIPTDLVDASGKQVPVNAQNQVDLRRFFVGPNGCEVTGITFTPDNKTLFVNIQHPDNWPYTDKATDATPAGATVRPRASTVVIQRIDGGEIGTV,not soluble
2,MKTLTEIKQTPKGIIKADESFNQVKDKIRLPRRILYLGCGSSHFLAKLLAMVTNMHGGTGVALPCSEFLYSKEAYPIGKPELVVGISRSGETTEVLLALEKINTPKLGISAYESSLTRACDYSLVVPTIEESVVMTHSFTAFYFAYLQLLRHSYGLPLLEATEVAKATEKALEYENYIKEIVEDFDFQNVIFLGSGLLYPVALEASLKMKEMAIFWSEAYPTFEVRHGFKAIADENTLVVLMAQELFEWHKKLVNEFKGQRARVLLISNSQQEFGQDYSIEVPRLSKDATPIPYLPVVQLLSYYKAVARGLNPDNPRFLDKVVRWLEHHHHHH,soluble
3,MSLTNLPEDRTGEEIRDAIKIDGEAVRGHLDELVRSTVEETLNQMLDAEADQICKAKRYERSPDRVDSRAGSYSRKLQTKAGEVSLKVPQLRSLPLETQIIERYKRRESSVEEALVEMYLAGVSVRRVEDITEALWGTRVSSSTVSELNQKIYERIDVWRNRPLEGEHPYVMLDGIWLKRSWGGEVKNIAVLVAVGVRSDGHREILSVAEGTKEDSESWRTFLRHLKERGLQGVRLITSDKCLGLVEALGEFFPEAAWQRCIVHFYRNVLKDVPRSKSRDVAAMLKAVHAQEDRTAATEKAEQVAEKLASLRLGNAAKCFRAGVQETLAYMNFPREHWTRLRSNNMLERIMKEIRRRTRVVGAFPDGQSALMLVAARLRHIAGTHWGTRRYLDMDRLHEPEEREDHEGHHHHHH,soluble
4,MYSANRSHRAETRNRSKDELRKVINSLEKVRRWEKKLVLIKDTNIRIYKWVPVSAQNIMAPPKIKEVKEVDEESNQVPSAENSQDSTSVTQPPPQFDINEDSNFSTGDHFDSDSNQTFEPQNYQGGATGSTDFSSMRDAEMTSKQP,not soluble
5,MNVCFFPRLKEFILNQDWNDPKSQLQQCCLTLRTEGKEPDIPLYKTLQTVGPSHARTYTVAVYFKGERIGCGKGPSIQQAEMGAAMDALEKYNFPQMAHQKRFIERKYRQELKEMRWEREHQEREPEEAEDIKK,soluble
6,MGSDKIHHHHHHHPHSFVDLKNKVLVDGTQLKGFQMEWTMDEIASAELIYEVKNNPDHQAAKKSITAEMEQTAIENHYFSYLYNAKDQPLKFSVKPSNTTFRIAGNRVVFYITFYLSKPYDLKNNAIRFYTYEPSYYMAMEYNNQQDLSINSSECKAKLTQPNVNNSLRLYASSLDKNQKPNMPDGEDNSLGAQFAQTVEVVCE,not soluble
7,MGSDKIHHHHHHMAISERDIEHIFERLRSGVVPERGLEAFAVGIDKQRTEIHRQFQLAANSEGVFKFLRGGYGCGKTFMSRLAILDAQAQGFATSFVVVSDNDLHFYKFDDVYRKVVQELGTSSCPRGALSDIIDRWIARVEDALIAGGADENSDEFDTLVQQRIEEELASLTGGKAPEDMARVLRAIFTFKQKGEIAEASALLSWLAGSENVAATAKKAAGIKGDIASRDALDYLHGILEIVKAAGYKGLVIVIDEVETVLRMRHDSRGKSLNGIRQICDAADRYRGLLWIYTGTPEFFDTKRGVAGLEPLHDRIQFLTLAGFANPRQPQLELKPFDARRLKEVALKLREIFPTANRTGIVNKVTFEFIERLVAKVTAGFKGDVGVVPRQFLRQFVNILDLASENDEFDPMSAEGFEPTDLNEVELLIREGRTYFDEDPADIQGYAAVEF,not soluble
8,MKCKDDMSAVLTAEQALKLVGEMFVYHMPFNRALGMELERYEKEFAQLAFKNQPMMVGNWAQSILHGGVIASALDVAAGLVCVGSTLTRHETISEDELRQRLSRMGTIDLRVDYLRPGRGERFTATSSLLRAGNKVAVARVELHNEEQLYIASATATYMVGLEHHHHHH,soluble
9,MSLWLQISNARIVCEDHLVEAGLAICDGLIDCFEQGGTSKAEAIDFDGDFLLPGLIDLHTDSVEHFMQPRPGVQWPSPLAAVLAHDWQLLGSGITTVLDALALGDYDSGGTRTAMLNDAIDGLTQARASGLLKTDHYFHFRCELSDPALLPIVERHVDNPGLRLISMMDHTPGQRQWHNLTLYREFRRKKNARVWNEEEFALHLAERREHQQQYVPPGRSTIGHLCRERDIRIASHDDTAAADVDESRGDGITISEFPTTVEAASRARELGMKIVMGSPNIILGGSHSGNVSALELADRGLLDVLTSDYVPGSLLHAAFALAAKGFDLPEAVAMVTKTPADLLGFSDRGRIAPGLRADLIRVRLVEGVPVIRNIWVAGRQYLEGHHHHHH,not soluble
10,MGSDKIHHHHHHMWIGFDYGSANCAVGIMHEGKISQIPLSANSQYLPSTLYALDRELIAQAVYQGISQDKKSEYAKLRSSQLSRAIQVRHELDLSMDEQTVFVGQAAIDAYLEMPEEGFYVRSPKSFLGANGLREEQVALFEDIVTLMMLHVKGITDNYLADNGLPAATHAVIGRPVNFQSIGGEKSNQQAEAILSLAAKRAGFTQVAFLFEPVAAGMDFEASLEQDSTVLVVDVGGGTTDCSVVRMGPSFAANKQREQDCLGHSGQRVGGNDLDIALAMKGFMPSLGLDSLLKSGKPMPSAPFWQAVAVNDVSAQRDFASLNARKLLDTLVKDAKEPELVKRLKKVQQDQLGYKLVRQAEGAKVTLSDAMQTECDLGFIASDLSVELTQAQFSHFIIEPLAKIEALIQAAVAKADVNPDLVYVTGGTARSPAIYAKIASVYPEAKIVVGDHFGSVTAGLTRWTQKVF,not soluble
11,MADYKDIVLIQSTSSLSASLGDRVTISCRASQDIRNYLNWYQQKPDGTVKLLIYYTSRLLPGVPSRFSGSGSGTDYSLTISNLEQEDIGTYFCQQGNTLPWTFGGGTKLEIRRGGGGSGGGGSGGGGSGGGGSEVQLQQSGPELVKPGASVKISCKDSGYAFSSSWMNWVKQRPGQGPEWIGRIYPGDGDTNYNGKFKGKATLTADKSSSTAYMQLSSLTSVDSAVYFCARSGLLRYAMDYWGQGTSVTVSS,soluble
12,MGSDKIHHHHHHMQDNLIEIRDLRVAFNGHEVVHGISLDIRRGECLALVGESGSGKSVTAHSILRLLPPKNVSTQGSIRYDGLDLVTASDKQLRSLRGNRVAMIFQEPMSSLNPLHTVEKQIGEILVTHKGLKGKAALSRTLELLELVGIREPLLRLKAYPHQLSGGQRQRVMIAMALANEPDLLIADEPTTALDVTVQVKILELLKSLQQRLNMSLLLISHDLNLVRRIAQRVCVMREGEIVEQADCQALFDNPQHPYSRLLINAEPDGEPVPSTHSNTLLSVQDLKVWFPLGKAWFQREQQYVKAVDGVSFELLKGKTLGIVGESGSGKSTLGQAILRLVDSEGSIRFGTKELSLHSQHLMRPLRRQLQVVFQDPFGSLSPRMTVEQIIAEGLVTHKIGTPKEREQTVIRVLQEVGLDPATRHRYPHEFSGGQRQRISIARALVLEPDLILLDEPTSALDRTVQKQIVALLRDLQIRHGLTYLFISHDLAVVHALAHDLIVIKDGKVVEQGPSREIFAAPQQAYTQELLRSSGLVFA,not soluble
13,MVRVIIKGGVWKNTEDEILKAAIMKYGKNQWSRIASLLHRKSAKQCKARWFEWLDPGIKKTEWSREEDEKLLHLAKLMPTQWRTIAPIVGRTSAQCLERYEHLLDEAQRKAEGLDEEATETRKLKPGEIDPTPETKPARPDPIDMDDDELEMLSEARARLANTQGKKAKRKARERQLSDARRLASLQKRREMRAAGLAFARKFKPKRNQIDYSEEIPFEKHVPAGFHNPSEDRYVVEDANQKAIEDHQKPRGREIEMEMRREDREKLKKRKEQGEADAVFNIKEKKRSKLVLPEPQISDRELEQIVKIGHASDSVRQYIDGTATSGLLTDYTESARANAVAARTMRTPMLKDTVQLELENLMALQNTESALKGGLNTPLHESELGKGVLPTPKVAATPNTVLHAIAATPGTQSQFPGSTPGGFATPAGSVAATPFRDQMRINEEIAGSALEQKASLKRALASLPTPKNDFEVVGPDDDEVEGAVEDESNQDEDGWIEDASERAENKAKRNAENRVRNMKMRSQVIQRSLPKPTKVNEQATRATNSSADDMVKAEMSKLLAWDVDNKPPSVIYSREELDAAADLIKQEAESGPELNSLMWKVVEQCTSEIILSKDKFTRIAILPREEQMKALNDEFQMYRGWMNQRAKRAAKVEKKLRVKLGGYQAIHDKLCKKYQEVTTEIEMANIEKKTFERLGEHELKAINKRVGRLQQEVTTQETREKDLQKMYSKLSNKQWKLSQIEIHDAASTTSAPITY,not soluble
14,MSTVGLFHFPTPLTRICPAPWGLRLWEKLTLLSPGIAVTPVQMAGKKDYPALLSLDENELEEQFVKGHGPGGQATNKTSNCVVLKHIPSGIVVKCHQTRSVDQNRKLARKILQEKVDVFYNGENSPVHKEKREAAKKKQERKKRAKETLEKKKLLKELWESSKKVH,soluble
15,MAQSPFRRMTTPGGYQMSVAMTNCGERGWITDHTGYRYDPVDPRTGVPWPAMPPAFRDLARRAAEQGGFTGFAPDACLVNRYEPGTRLSLHQDKDELDYAAPIVSVSLGLPATFLFGGMARSDKPRRFRLVHGDVVVWGGASRLAYHGVAPLADGEHALLGRQRINLTFRKVLLEHHHHHH,soluble
16,MGSDKIHHHHHHMATPEFKYQKPFPMGDDTTEYYLLTKEYVSVDKFGDHDVLKVEPEALRLLARTAFHDIAFYLRPEHQQQVARILSDPEASENDKFVALTFLRNAEVSAKGQLPFCQDTGTAIILGKKGQQVWTGGHDEEQLSHGVYDTYTQENLRYSQNAPLDMYKEVNTGCNLPAQIDLMAVDGMEYDFLCIAKGGGSANKTYLYQETKALLNPKTLVNFLVDKMSSLGTAACPPYHIAFVIGGTSAETNLKTVKLASAKYYDNLPTSGNEGGRAFRDVELEKEVLEAAYHLGLGAQFGGKYFAHDVRIIRLPRHGASCPVGMGVSCSADRNIKAKINKDGIWIEKMETNPTRLIPESMREGTEGTVVKVDLNRPMPEILRELSQYPVSTRLSLSGTIIVGRDIAHAKLKERIDRGEGLPDYIKNHPIYYAGPAKTPKGMPSGSFGPTTAGRMDSYVDLFQSHGGSMVMIAKGNRSQQVTDACKKYGGFYLGSVGGPAAILAQDSIKKVECLEYPELGMEAIWKIEVEDFPAFILVDDKGNDFFTQIREKCKGCALH,not soluble
17,MGKRKAFIDKKASQSFRLVPDNRERSERFKPTQEHLEEQQKYGVYYDDDYDYLQHMRAVNEPMKLENVHEEVEKTTIKTSGSSAFPPAPPLFGLVGALKKPEFFDEDVANALEEVTDDRNTGELEDNFITLAGGLLDERTTVYRSTRRGEDSEEEEDDDEDDEMYDDYNDDELFGEEAVGEIRVERADQRVIDNAFEELMDREYNTDQIGELDGDDYDVGGALEPNAGRLHKLINDKGPSNAEYDEELAKHYVRERMRLIEEGVIKDKEEYEIVEVDEGTNKKMKWDCESFATQYTNIYNHPTLIKEPRGLSRKALKRFDKAVEEMDIAEEDEDDDEDMEDDDDKESVFSTVSTFRPKNETPEQRSLRKKAVKEARKLRRVEKKANKTMFAEEKRKLAKGRIGQIKARPI,not soluble
